Test results reported in paper PMC7145548.

Legend:
[1] = biological target: T1, hsRosR (Halobacterium salinarum (Halobacterium …, UniProt Q9HSF4 1-116)); experiment: fluorescence anisotropy
T1 sequence: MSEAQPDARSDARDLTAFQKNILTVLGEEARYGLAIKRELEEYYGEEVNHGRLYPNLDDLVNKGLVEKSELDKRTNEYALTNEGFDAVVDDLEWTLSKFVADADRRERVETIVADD

[2] = biological target: T1, hsRosR; experiment: X-ray crystallography
[3] = biological target: T1, hsRosR; experiment: fluorescence anisotropy; remark: listed apart in the source
[4] = biological target: T1, hsRosR; experiment: X-ray crystallography; remark: listed apart in the source
[5] = biological target: T1, hsRosR; experiment: ITC
[6] = biological target: T1, hsRosR; experiment: ITC; remark: listed apart in the source
[7] = biological target: T1, hsRosR; experiment: fluorescence anisotropy; remark: listed apart in the source
[8] = biological target: T1, hsRosR; experiment: fluorescence anisotropy; remark: listed apart in the source
[9] = biological target: T1, hsRosR; experiment: fluorescence anisotropy; remark: listed apart in the source
[10] = biological target: T1, hsRosR; experiment: fluorescence anisotropy; remark: listed apart in the source
[11] = biological target: T1, hsRosR; experiment: fluorescence anisotropy; remark: listed apart in the source
[12] = biological target: T1, hsRosR; experiment: X-ray crystallography; remark: listed apart in the source

B1: S1 (35 bp) (dsDNA)
DNA 1: GCGAGGTGTAAATTGTCTGACATGTTCTTATTGGG
DNA 2: CCCAATAAGAACATGTCAGACAATTTACACCTCGC
Kd [1]: 49.3 ± 6.18 nM

B2: GS2 (second) (dsDNA)
DNA 1: TTGAATTTGTGGGGGCAGGGACAGCCCTGA
DNA 2: TCAGGGCTGTCCCTGCCCCCACAAATTCAA
binding result [1]: no binding

B3: S4 (28 bp) (dsDNA)
DNA 1: CCGAAGTGTAAACGCGTTGACATGTGGT
DNA 2: ACCACATGTCAACGCGTTTACACTTCGG
binding result [2]: binds

B4: S3 (dsDNA)
DNA 1: GCACATGTAAGTCTATTGACATGTTCTTTCCCTCG
DNA 2: CGAGGGAAAGAACATGTCAATAGACTTACATGTGC
Kd [3]: 68 ± 11.3 nM

B5: GS2 (first) (dsDNA)
DNA 1: ATCGGGACAATCGCGTCTCTGTCGATCG
DNA 2: CGATCGACAGAGACGCGATTGTCCCGAT
binding result [1]: no binding

B6: S1 (28 bp) (dsDNA)
DNA 1: GCGAGGTGTAAATTGTCTGACATGTTCT
DNA 2: AGAACATGTCAGACAATTTACACCTCGC
Kd [1]: 53.5 ± 6.54 nM

B7: S5 (35 bp) (dsDNA)
DNA 1: GCGAAGTGTCATCCCTCTTACATGACTTGTCTTGG
DNA 2: CCAAGACAAGTCATGTAAGAGGGATGACACTTCGC
Kd [3]: 99.5 ± 10.6 nM

B8: SG (28 bp) (dsDNA)
DNA 1: GCGACGTGTATTTCCCCTGACACTAGCG
DNA 2: CGCTAGTGTCAGGGGAAATACACGTCGC
binding result [4]: binds

B9: GS5 (dsDNA)
DNA 1: AGCGAGGACACTGCTGGCGGTGTCGCCGTC
DNA 2: GACGGCGACACCGCCAGCAGTGTCCTCGCT
binding result [1]: no binding

B10: GS1 (dsDNA)
DNA 1: TAATAGACAGGGAGATCGATGTCTGCTA
DNA 2: TAGCAGACATCGATCTCCCTGTCTATTA
binding result [1]: no binding

B11: S4 (35 bp) (dsDNA)
DNA 1: GCCCGAAGTGTAAACGCGTTGACATGTGGTGCTGG
DNA 2: CCAGCACCACATGTCAACGCGTTTACACTTCGGGC
Kd [3]: 91.6 ± 13.2 nM

B12: S2 (dsDNA)
DNA 1: GCGCTCATGTCAACCTTCTTACACTTCCTCTCCCG
DNA 2: CGGGAGAGGAAGTGTAAGAAGGTTGACATGAGCGC
Kd [3]: 60.1 ± 18.8 nM

B13: S1 (25 bp) (dsDNA)
DNA 1: GTGTAAATTGTCTGACATGTTCTTA
DNA 2: TAAGAACATGTCAGACAATTTACAC
Kd [5]: 259 ± 9.75 nM
Kd [6]: 91 ± 3.25 nM
Kd [7]: 169 ± 30.2 nM
Kd [1]: 37.2 ± 2.36 nM
Kd [8]: 25.9 ± 2.02 nM
Kd [9]: 78.3 ± 8.34 nM
Kd [10]: 80.2 ± 10.2 nM
Kd [11]: 24 ± 3.37 nM

B14: S5 (28 bp) (dsDNA)
DNA 1: GCGAAGTGTCATCCCTCTTACATGACTT
DNA 2: AAGTCATGTAAGAGGGATGACACTTCGC
binding result [12]: binds
